In this test the target is acetamidofluorescein-F-actin on antifluorescein IgG-Sephacryl S-1000 beads (rabbit) (UniProt P68135). The test is described as follows: co-sedimentation.

Where “and” joins values, the source holds several entries; their conditions need not be identical. Identical values can stand only once.

Chain of myosin subfragment-1 (domain or fragment) (Q28641 whole entry, the tested form may be a part): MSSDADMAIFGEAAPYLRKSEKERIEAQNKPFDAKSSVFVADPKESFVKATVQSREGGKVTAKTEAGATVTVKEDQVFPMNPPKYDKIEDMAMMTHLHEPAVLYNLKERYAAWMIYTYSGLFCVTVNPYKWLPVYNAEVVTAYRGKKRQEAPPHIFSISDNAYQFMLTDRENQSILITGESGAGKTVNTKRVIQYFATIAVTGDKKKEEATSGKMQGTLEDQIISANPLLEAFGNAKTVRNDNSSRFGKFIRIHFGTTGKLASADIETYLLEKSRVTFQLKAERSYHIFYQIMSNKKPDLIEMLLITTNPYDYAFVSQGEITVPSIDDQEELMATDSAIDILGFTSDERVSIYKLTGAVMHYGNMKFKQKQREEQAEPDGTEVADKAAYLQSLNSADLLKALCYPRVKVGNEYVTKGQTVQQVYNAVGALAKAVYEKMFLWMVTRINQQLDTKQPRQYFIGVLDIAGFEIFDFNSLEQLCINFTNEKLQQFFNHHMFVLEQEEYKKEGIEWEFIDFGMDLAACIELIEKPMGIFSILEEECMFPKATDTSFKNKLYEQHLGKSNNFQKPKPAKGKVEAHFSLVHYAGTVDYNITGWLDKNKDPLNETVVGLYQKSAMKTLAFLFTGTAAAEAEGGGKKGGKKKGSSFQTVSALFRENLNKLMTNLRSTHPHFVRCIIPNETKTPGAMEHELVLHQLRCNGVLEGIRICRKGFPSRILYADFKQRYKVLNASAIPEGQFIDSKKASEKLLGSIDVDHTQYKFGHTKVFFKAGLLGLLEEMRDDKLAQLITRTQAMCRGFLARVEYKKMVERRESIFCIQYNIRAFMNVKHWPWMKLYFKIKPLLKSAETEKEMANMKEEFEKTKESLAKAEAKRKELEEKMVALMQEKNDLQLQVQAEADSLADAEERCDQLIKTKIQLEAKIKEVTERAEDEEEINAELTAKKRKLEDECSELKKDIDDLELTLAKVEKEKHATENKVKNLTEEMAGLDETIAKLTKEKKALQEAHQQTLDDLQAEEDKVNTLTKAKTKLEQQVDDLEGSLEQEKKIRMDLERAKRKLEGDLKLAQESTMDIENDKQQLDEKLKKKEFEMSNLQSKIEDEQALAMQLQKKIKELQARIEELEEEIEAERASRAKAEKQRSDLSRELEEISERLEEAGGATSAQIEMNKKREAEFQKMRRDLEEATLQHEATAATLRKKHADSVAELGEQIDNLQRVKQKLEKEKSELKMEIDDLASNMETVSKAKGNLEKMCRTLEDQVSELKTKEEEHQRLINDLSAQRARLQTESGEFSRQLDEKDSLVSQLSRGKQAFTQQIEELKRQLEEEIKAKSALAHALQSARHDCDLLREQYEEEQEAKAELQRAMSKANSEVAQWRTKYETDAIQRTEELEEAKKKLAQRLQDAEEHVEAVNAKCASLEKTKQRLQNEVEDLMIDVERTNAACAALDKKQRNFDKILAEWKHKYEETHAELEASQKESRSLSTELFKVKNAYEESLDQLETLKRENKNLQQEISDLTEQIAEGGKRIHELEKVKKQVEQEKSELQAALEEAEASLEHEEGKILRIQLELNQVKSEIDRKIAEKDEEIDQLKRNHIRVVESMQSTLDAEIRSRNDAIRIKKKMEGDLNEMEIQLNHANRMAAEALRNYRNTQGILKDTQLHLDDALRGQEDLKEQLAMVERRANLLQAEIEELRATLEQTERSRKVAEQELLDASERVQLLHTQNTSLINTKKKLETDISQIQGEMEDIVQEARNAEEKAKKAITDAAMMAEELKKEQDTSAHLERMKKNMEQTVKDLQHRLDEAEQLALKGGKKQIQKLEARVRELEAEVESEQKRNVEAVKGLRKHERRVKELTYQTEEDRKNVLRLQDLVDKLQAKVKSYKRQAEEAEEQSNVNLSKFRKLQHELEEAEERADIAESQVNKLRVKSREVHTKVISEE

The term Ki denotes a dissociation constant, usually derived from enzyme kinetics or from competition with a known ligand. In the case of “myosin subfragment-1 (domain or fragment)”, the Ki was 40 nM and 25 nM and 80 nM.
